# Experimental data published in patent US8697648B2, “Protein agent for diabetes treatment and β cell imaging” (Georgia State University Research Foundation, Inc., priority 2009, dated 2014).
# Where two headings read alike, the source gives them in different places.
# T1: GLP-1 receptor (Rattus norvegicus, UniProt P32301)
# T1 construct: It is well known that GLP-1R is expressed in RINm5F but not in CHO cells; endogenous in cells; host or cells: RINm5F rat insulinoma cells
# T1 sequence (P32301 22-463): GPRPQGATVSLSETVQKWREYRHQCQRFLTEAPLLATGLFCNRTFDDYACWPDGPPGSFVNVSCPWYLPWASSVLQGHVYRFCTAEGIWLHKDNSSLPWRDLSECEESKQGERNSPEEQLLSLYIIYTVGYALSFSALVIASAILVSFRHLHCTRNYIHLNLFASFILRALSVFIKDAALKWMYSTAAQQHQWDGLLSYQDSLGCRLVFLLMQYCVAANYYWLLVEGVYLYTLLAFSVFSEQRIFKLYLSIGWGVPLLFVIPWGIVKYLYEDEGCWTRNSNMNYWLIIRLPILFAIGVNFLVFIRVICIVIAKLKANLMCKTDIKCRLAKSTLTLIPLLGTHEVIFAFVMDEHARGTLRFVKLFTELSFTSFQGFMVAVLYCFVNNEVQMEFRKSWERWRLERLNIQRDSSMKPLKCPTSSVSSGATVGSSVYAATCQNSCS
# Tests used:
# [1] = R1 and R2 relaxivity with a relaxometer; format: physicochemical; conditions: 1.4 T
# Experimental: To ensure that the fusion protein is applicable as a MRI contrast agent, the Gd^3+ binding property and R1/R2 relaxivity of the fusion protein were tested using well-known methods.
# [2] = cited from earlier work
# [3] = tested on: Diabetic mice (BKS.Cg-Lepr^db/db); experiment: Blood glucose lowering in fed diabetic mice (Example 15); format: in vivo
# Experimental: The animals were re-feed for 25 minutes 5 hours after drug administration and 35 minutes before the last time point of blood sample collection. The A Blood Glucose (mg/dl) was determined by calculating the difference between the measured blood glucose levels at any given time point and the initial blood glucose levels. The initial blood glucose levels were measured after feeding for 20 min and before the drug administration (time zero). The error bars represent standard deviations of measurements of eight mice.
# The developed protein agent was tested to determine whether it had the in vivo capability of lowering blood glucose in diabetic subjects. Diabetic mice (BKS.Cg-Lepr^db/db, The Jackson Laboratory) were used as test subjects. A group of six animals first fasted for 6 hours. After fasting, the animals were fed for 30 minutes. The protein agent was administered after feeding by intraperitoneal injection at a dose of 25 nmole/kg. The animals were fed again for 30 mins, 5 hrs after agent administration. Blood samples were taken at different time points after administration of the agent. Glucose concentration in the blood samples was measured using a commercially available kit.
# [4] = tested on: diabetic mice; experiment: Blood glucose and glucose-dependent insulin secretion after co-administration with glucose (Example 16); format: in vivo; conditions: 25 nmole/kg agent with 15 mmole/kg glucose i.p.
# Experimental: FIG. 12 is a pair of graphs showing the changes in Δ blood glucose (Upper panel) and Δ insulin (bottom panel) in a group of 8 diabetic mice at different time points after injection of 15 mmole/kg of glucose with 25 nmole/kg of different agents.
# The effects of the developed agent on blood glucose lowering and stimulating of the glucose-dependent insulin secretion in diabetic mice were also examined. The animals first fasted for 6 hours. The protein agent (25 nmole/kg) and glucose (15 mmole/kg) were co-administrated via intraperitoneal injection with a group of eight diabetic mice. The blood glucose and insulin levels were measured at different time points. As controls, the same dose of glucose was administrated alone and co-administrated with the parental protein calbindin in separate groups of diabetic mice.
# [5] = molecular target: T1, GLP-1 receptor; experiment: Cell-based intracellular cAMP assay (Lance cAMP 384 kit) in RINm5F cells; conditions: concentration around 200 μM
# Experimental: The cells were harvested 30 minutes post treatments. Cell lysates were prepared from the harvested cells. The cAMP levels in the lysate were then measured and expressed as pmole values. The error bars represent standard deviations of four times of measurements.
# A Lance cAMP 384® Kit (Perkin Elmer, Inc) was used to compare the incretin effects of fusion protein and PEGylated protein. Rat Insulinoma cells (RINm5F) were cultured with RPMI1640 with 10% FBS in 75 cm^2 cell culture flasks. Cells are harvested and washed three times with HBSS (Invitrogen Corp.) buffer. A series of 5 μl test protein and 5 μl cell suspension with 5000 cells in stimulation buffer (1×HBSS buffer with 5 mM HEPES, 0.1% BSA and 150 mM IBMX) and Alexa, biotin labeled cAMP antibodies were incubated at 37° C. for 15 mins in 384-well plate. […] A VICTOR^3 plated reader (PerkinElmer, Inc.) was used to detect the fluorescence signal at excitation 340 nm and emission 665 nm and 615 nm. The collected data was then analyzed with the equation of F=F665 nm/F615 nm. […]
# The effects of the PEGylated proteins and unPEGylated protein in stimulating the cAMP production were examined in rat insulinoma β-cells RINm5F. The cAMP production was analyzed using a commercial cAMP kit (PerkinElmer).
# [6] = tested on: RINm5F cells; experiment: Immunostaining binding analysis, RINm5F cells (GLP-1R expressed); format: cell-based, rat; conditions: Cal.GLP 10 μM, calbindin D9k 50 μM, 37° C., 30 mins
# Experimental: (§1) FIG. 10 is a series of digital images showing immunofluorescence staining of CHO or RINm5F cells that were treated by calbindin (50 μM) and Cal.GLP (10 μM). The cells were extensively washed after 30 min treatments under 37° C. in microscopic chamber slides and subsequently fixed. The cells were stained with the calbindin-specific antibody and visualized under confocal microscopy. The light shading represents antibody staining.
# (§2) To examine whether the developed protein indeed interacted with GLP-1R, the binding of the fusion protein with two cell lines, RINm5F and CHO cells was examined. It is well known that GLP-1R is expressed in RINm5F but not in CHO cells. Both RINm5F and CHO cells were incubated with fusion protein Cal.GLP (10 μM) or calbindin D9k (50 μM) at 37° C. for 30 mins. After extensive washing, the cells were fixed and subjected to immunostaining analyses using a rabbit polyclonal antibody against parental protein calbindin D9k. […] Similar binding analyses were carried out with RINm5F cells and a […] (αTC1).
# [7] = tested on: CHO cells; experiment: Immunostaining binding analysis, CHO cells (no GLP-1R); format: cell-based; conditions: Cal.GLP 10 μM, calbindin D9k 50 μM, 37° C., 30 mins
# Experimental: as §1, §2
# [8] = in vivo
molecule,measurement,setting,value
"O=C(O)CN(CCN(CC(=O)O)CC(=O)O)CCN(CC(=O)O)CC(=O)O (Gd complex, metal not drawn) [DTPA, reference compound]",R1,[1],3.8 mM^−1S^−1
CC[C@H](C)[C@H](NC(=O)[C@H](Cc1ccccc1)NC(=O)[C@H](CCC(=O)O)NC(=O)[C@H](CCCCN)NC(=O)[C@H](C)NC(=O)[C@H](C)NC(=O)[C@H](CCC(N)=O)NC(=O)CNC(=O)[C@H](CCC(=O)O)NC(=O)[C@H](CC(C)C)NC(=O)[C@H](Cc1ccc(O)cc1)NC(=O)[C@H](CO)NC(=O)[C@H](CO)NC(=O)[C@@H](NC(=O)[C@H](CC(=O)O)NC(=O)[C@H](CO)NC(=O)[C@@H](NC(=O)[C@H](Cc1ccccc1)NC(=O)[C@@H](NC(=O)CNC(=O)[C@H](CCC(=O)O)NC(=O)[C@H](C)NC(=O)[C@@H](N)Cc1c[nH]cn1)[C@@H](C)O)[C@@H](C)O)C(C)C)C(=O)N[C@@H](C)C(=O)N[C@@H](Cc1c[nH]c2ccccc12)C(=O)N[C@@H](CC(C)C)C(=O)N[C@H](C(=O)N[C@@H](CCCCN)C(=O)NCC(=O)N[C@@H](CCCNC(=N)N)C(N)=O)C(C)C [GLP-1 peptide],circulation time,[2]; degradation by DPP-4,less than 2 minutes
CCCCCCCCCCCCCCCC(=O)N[C@@H](CCC(=O)NCCCC[C@H](NC(=O)[C@H](C)NC(=O)[C@H](C)NC(=O)[C@H](CCC(N)=O)NC(=O)CNC(=O)[C@H](CCC(=O)O)NC(=O)[C@H](CC(C)C)NC(=O)[C@H](Cc1ccc(O)cc1)NC(=O)[C@H](CO)NC(=O)[C@H](CO)NC(=O)[C@@H](NC(=O)[C@H](CC(=O)O)NC(=O)[C@H](CO)NC(=O)[C@@H](NC(=O)[C@H](Cc1ccccc1)NC(=O)[C@@H](NC(=O)CNC(=O)[C@H](CCC(=O)O)NC(=O)[C@H](C)NC(=O)[C@@H](N)Cc1cnc[nH]1)[C@@H](C)O)[C@@H](C)O)C(C)C)C(=O)N[C@@H](CCC(=O)O)C(=O)N[C@@H](Cc1ccccc1)C(=O)N[C@H](C(=O)N[C@@H](C)C(=O)N[C@@H](Cc1c[nH]c2ccccc12)C(=O)N[C@@H](CC(C)C)C(=O)N[C@H](C(=O)N[C@@H](CCCNC(=N)N)C(=O)NCC(=O)N[C@@H](CCCNC(=N)N)C(=O)NCC(=O)O)C(C)C)[C@@H](C)CC)C(=O)O [Liraglutide],blood circulation time,[2]; in vivo,more than 10 hr
Exendin 4 [reference compound],drop of blood glucose levels,"[3]; 25 nmole/kg i.p., within 30 minutes",about 189 mg/dl
same,blood glucose levels after re-feed,"[3]; 6 hours post administration, one hour after re-feed",almost reached the same blood glucose levels before the drug treatments
same,time of immediate insulin increase and glucose decrease,[4],≤ 30 min
"calbindin: parental host protein human Calbindin D9k, negative control; SEQ ID NO: 13 (protein, human calbindin D9K) MSTKKSPEELKRIFEKYAAKEGDPDQLSKDELKLLIQAEFPSLLKGPNTLDDLFQELDKNGDGEVSFEEFQVLVKKISQ",increase of intracellular cAMP level,[5],could not increase cell intracellular cAMP level
same,binding to RINm5F cells,[6],did not bind to either cell
same,binding to CHO cells,[7],did not bind to either cell
same,change of blood glucose levels,"[3]; control group, same dose (25 nmole/kg)",decreased slightly
same,blood glucose lowering post glucose and drug administration,[4],did not
same,R1,[1],6.58 mM^−1S^−1
same,blood circulation time,[8],more than 24 hours
Cal.GLP/Q26D: Q26D variant of the Cal.GLP fusion protein; SEQ ID NO: 18 (protein) MSTKKSPEELKRIFEKYAAKEGDPDDLSKDELKLLIQAEFPCLLKGPNTLDDLFQELDKNGHAEGTFTSDVSSYLEGQAAKEFIAWLVKGR,R1,[1],20 mM^−1S^−1
